In the supplement of paper PMC10567573:

B1: LPCAT4 (parent)
chain: HDPLYGKLFSTYLRPPHTSRGTSQ
B2: DCAF4 (parent)
chain: TTKCVRQYEGHVNEYAYLPLHVHE

Variants of: B1
Experiment: protein stability index of a GFP-peptide fusion (GPS, HEK-293T) (PSI 1-6); higher = more stable
Conditions: c terminus: a fixed tail appended
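Further: lentivirally expressed fusions sorted by FACS into six bins by GFP to DsRed ratio, PSI derived from sequencing read proportions per bin multiplied by bin number.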

Protein stability index: each site, then its substitutions
G6: E 3.19 | R 1.76 | Q 2.35 | W 2.06 | V 2.56 | N 2.08 | I 1.6 | A 1.77 | Y 2.42 | C 2.17 | L 2.18 | F 1.58 | D 3.61 | P 3.46 | M 1.7 | H 1.88 | K 1.73 | S 1.27 | T 1.86
R14: L 2.32 | G 3.73 | N 3.04 | P 3.71 | Q 2.83 | V 3.17 | S 2.69 | C 2.78 | F 2.81 | W 2.52 | D 3.9 | I 3.17 | K 2.66 | Y 2.81 | T 3.09 | H 3.28 | M 2.79 | A 3.08 | E 3.4
S10: R 3.02 | E 4.21 | V 2.64 | A 2.96 | K 3.46 | Q 3.78 | D 4.06 | L 2.96 | H 3.8 | W 2.44 | Y 1.67 | I 2.49 | F 1.96 | M 2.72 | C 1.97 | T 3.63 | G 3.34 | P 4.13 | N 3.97
H17: D 2.82 | I 2.43 | L 2.66 | N 2.59 | C 2.7 | G 2.25 | R 2.3 | P 2.99 | A 2.79 | M 2.43 | F 2.9 | K 2.38 | E 3.22 | Q 2.61
H1: S 3.68 | T 3.96 | L 4.22 | P 3.1 | M 2.98 | W 2.38 | G 2.88 | R 3.09 | N 3.2 | Q 3.18 | I 3.4 | V 4 | D 3.52 | K 3.32 | E 2.83 | C 3.66 | F 2.12 | A 4.01
K7: P 2.36 | V 2.68 | N 3.36 | S 2.58 | I 2.75 | C 2.04 | F 1.94 | R 2.46 | H 2 | D 3.28 | T 3.43 | M 2.65 | A 2.55 | Q 3.12 | W 1.96 | Y 1.78 | E 3.29 | L 2.46 | G 3.25
D2: Q 2.44 | Y 2.62 | L 2.34 | G 2.56 | R 2.63 | I 1.96 | S 2.5 | F 2.27 | A 2.37 | N 2.1 | P 2.8 | H 2.19 | C 2.28 | V 1.85 | M 1.91 | W 2.86 | K 2.63 | E 2.74 | T 1.98
L13: R 3.39 | Q 4.06 | A 3.73 | V 3.72 | N 4.16 | D 4.11 | H 3.88 | K 3.44 | G 3.62 | M 3.1 | W 2.77 | F 3.21 | E 3.99 | S 4.04 | T 3.72 | C 2.77 | P 3.21 | I 3.06 | Y 2.78
P3: M 2.27 | Y 2.55 | I 2.29 | F 2.12 | K 2.54 | R 2.55 | A 2.5 | N 2.44 | G 2.35 | H 2.98 | D 3.02 | L 2.25 | T 2.7 | W 2.03 | C 2.17 | E 3.14 | V 2.76 | Q 2.38 | S 2.3
L4: I 2.04 | H 3.22 | C 3.28 | S 3.35 | Q 2.03 | K 1.9 | A 2.32 | W 2.98 | R 1.58 | F 3.22 | D 3.74 | E 3.46 | N 2.28 | M 3.29 | G 3.3 | V 2.66 | T 2.87 | Y 2.69 | P 3.28
L8: E 4.85 | Y 2.58 | F 2.15 | G 4.66 | M 3.73 | A 4.59 | T 4.31 | C 4.01 | V 3.62 | Q 4.58 | I 3.25 | D 4.88 | W 2.37 | P 4.26 | N 4.19 | R 4.27 | H 4.44 | K 3.91 | S 4.68
Y12: N 3.4 | V 2.92 | K 3.91 | S 3.97 | R 3.76 | I 3.11 | P 4.14 | Q 3.53 | M 2.76 | G 3.36 | H 3.31 | A 3.74 | C 3.01 | L 2.85 | D 4.06 | E 4.3 | W 2.53 | F 2.8 | T 3.95
F9: N 4.76 | Y 3.8 | Q 4.37 | R 4.13 | M 4.35 | V 4.24 | A 4.32 | P 3.65 | E 4.54 | D 4.41 | K 4.05 | T 4.12 | G 4.09 | S 4.74 | C 3.71 | L 3.54 | H 4.33 | I 3.82 | W 2.43
T11: L 2.39 | I 2.46 | M 2.92 | C 2.48 | D 3.46 | S 2.63 | H 3.05 | E 3.07 | V 2.24 | A 4.05 | Y 2.82 | N 3.02 | Q 3.43 | K 3.45 | G 2.49 | F 2.75 | P 2.48 | R 2.94 | W 2.77
Y5: A 2.94 | D 3.92 | T 3.36 | E 3.67 | N 2.85 | G 2.76 | K 3.43 | H 2.98 | W 2.11 | C 3.69 | V 3.3 | P 3.65 | Q 3.82 | M 3.11 | I 2.69 | F 2.47 | R 3.18 | S 3.21 | L 3.05
P16: E 3.19 | H 2.52 | I 2.41 | S 2.67 | T 2.76 | D 3.37 | Y 2.22 | K 3.01 | R 2.77 | V 2.46 | W 2.42 | F 1.77 | M 3.13 | Q 3.27 | L 2.68 | N 2.94 | G 3.01 | C 2.26 | A 2.2
P15: Q 2.47 | C 2.11 | E 2.13 | K 2.6 | V 2.42 | M 2.51 | A 2.7 | T 1.88 | W 2.37 | G 3.2 | F 2.08 | S 2.48 | I 2.32 | L 2.27 | R 2.85 | N 2.36 | D 3.16 | Y 2.52 | H 2.47

Variants of: B2
Experiment: as above
Conditions: c terminus: a fixed tail appended

Protein stability index: each site, then its substitutions
K3: T 2.71
H11: F 1.88
H21: A 2.58
Q7: N 2.54 | V 2.24
Y8: G 3.12
L18: N 3.15 | K 2.76
P19: D 3.02
L20: N 3.1
T2: E 3.23
V5: A 2.67
V22: L 2.54
G10: S 2.69 | Q 2.24 | H 2.31
C4: Q 2.94
